Reference: paper PMC9876794 (2022)

How the values were obtained:
[1] = target: T1, SARS-CoV-2 spike RBD (WT) (Severe acute respiratory syndrome …, UniProt P0DTC2); test: BLI
[2] = target: T1, SARS-CoV-2 spike RBD (WT); test: ELISA; parameters: unit not given here

Row | Binder | Kd [1] [nM] | binding score [2]
1 | D049 (antibody, V domains shown) VH: EVQLVQSGAEVKKPGESLKISCKGSGYSFISHWIGWVRQMPGKGLEWMGIIYPGDSDTRNSPSFQGQVTISADKSISTAYLQWSSLKASDTAMYYCARLLGSNYEVGFDYWGQGTLVTVSS VL: not shown | 9.69 | 6.28
2 | C2743 (antibody, V domains shown) VH: QVQLVQSGAEVKKPGASVKVSCKASGYTFTSYGISWVRQAPGQGLEWMGWISAYNGNTNYAQKLQGRVTMTTDTSTSTAYMELRSLRSDDTAVYYCARDFGELATPLDYWGQGTLVTVSS VL: EIVLTQSPATLSLSPGERATLSCRASQSVSSYLAWYQQKPGQAPRLLIYDASNRATGIPARFSGSGSGTDFTLTISSLEPEDFAVYYCQQRSNSLTFGGGTKVEIK | 18.5 | 14.3
3 | C2748 (antibody, V domains shown) VH: QVQLVQSGAEVKKPGSSVKVSCKASGGTFTNYAISWVRQAPGQGLEWMGGIIPIFGTEDYAQRFQGRVTITADESTSTAYMELTSLTSEDTAVYFCARGLPLTVTTRRRFNFFDYWGQGTLVTVSS VL: not shown | 2.4 | 11.7
4 | D164 (antibody, V domains shown) VH: QVQLVQSGAEVKKPGASVKVSCKASGYTFTSYYMHWVRQAPGQGLEWMGIINPSGGSTSYAQKFQGRVTMTRDTSTSTVYMELSSLRSEDTAVYYCARGGIVPAATENFDYWGQGTLVTVSS VL: EIVLTQSPATLSLSPGERATLSCRASQSVSSYLAWYQQKPGQAPRLLIYDASNRATGIPARFSGSGSGTDFTLTISSLEPEDFAVYYCQQRSNWPITFGQGTRLEIK | 194 | 63.2
5 | D051 (antibody, V domains shown) VH: QVQLQQWGAGLLKPSETLSLTCAVYGGSFSDYYWTWIRQAPGKGLEWIGEINHSGSTNYNPSLKSRVTISVDTSKSQFSLSLTSVTAADTAVYYCARGRRYCNSLSCPYYFYFYMDVWDKGTTVTVSS VL: DIQMTQSPSSVSASVGDRVTITCRASQGISSWLAWYQQKPGKAPKLLIYAASSLQSGVPSRFSGSGSGTDFTLTISSLQSEDFATYYCQQANSFPRTFGQGTRLEIK | 2240 | > 10000
6 | D002 (antibody, V domains shown) VH: EVQLVQSGAEVKKPGESLKISCKASGYNFTTSWIGWVRQMPGKGLEWMGIIYPGDFDTTYSPSFQGQVTISADKSISTAYLQWSSLKASDTAMYYCARVGPTAGTDGYNYLDWYFDLWGRGTLVTVSS VL: SYELTQPPSVSVSPGQTARITCSGDALPKQFSYWYQQKPGQAPVLVIYKDNERPSGIPERFSGSSSGTTVTLTISGVQAEDEADYYCQSADSISWVFGGGTKLTVL | 465 | 3640
7 | D070 (antibody, V domains shown) VH: EVQLVESGGGLVQPGGSLRLSCAASGFTFSSYEMNWVRQAPGKGLEWVSYISSSGSTIYYADSVKGRFTISRDNAKNSLYLQMNSLRAEDTAVYYCARVPRGYYDSSGYYYVGYYFDYWGQGTLVTVSS VL: DIQLTQSPSFLSASVGDRVTITCRASQGISSYLAWYQQKPGKAPKLLIYAASTLQSGVPSRFSGSGSGTEFTLTISSLQPEDFATYYCQQLNSYTFTFGPGTKVDIK | 115 | 716
8 | C2721 (antibody, V domains shown) VH: EVQLVESGGGLIQPGGSLRLSCAASGFTVSSNYMSWVRQAPGKGLEWVSVIYSGGSTYYADSVKGRFTISRDNSKNTLYLQMNSLRAEDTAVYYCARDMGGDAFDIWGQGTMVTVSS VL: DIQLTQSPSFLSASVGDRVTITCRASQGISSYLAWYQQKPGKAPKLLIYAASTLQSGVPSRFSGSGSGTEFTLTISSLQPEDFATYYCQQLNSYPFFGGGTKVEIK | 98.5 | 174
9 | C2736 (antibody, V domains shown) VH: QVQLVQSGAEVKKPGSSVKVSCKASGGTFSSYAISWVRQAPGQGLEWMGGIIPIFGTANYAQKFQGRVTITADESTSTAYMELSSLRSEDTAVYYCASCRYYYDSSGYAQPEDYFDYWGQGTLVTVSS VL: QSVLTQPPSVSGAPGQRVTISCTGSSSNIGAGYDVHWYQQLPGTAPKLLIYGNSNRPSGVPDRFSGSKSGTSASLAITGLQAEDEADYYCQSYDSSLSGSHVVFGGGTKLTVL | 6.14 | 79.9
